Test results from PMC5674899.

Legend:
[1] = target: GFP-tagged WT NuMA-tail II (aa 1868–2091) (human) (UniProt Q14980); assay: ITC
[2] = target: GFP-tagged WT NuMA-tail II (aa 1868–2091) (human) (UniProt Q14980); assay: TIRF microscopy of GFP-tagged protein on immobilised microtubules
[3] = target: NuMA-tail (1970–2091)—GFP (human) (UniProt Q14980); assay: as above

Substance | Kd [1] [µM] | fold reduction of the GFP signal of m1 on microtubules [2] [fold] | fold reduction of the microtubule binding of m17 [3] [fold]
Importin-α lacking the Importin-β binding (IBB) domain (aa 70–524), mouse (from UniProt P52293 70-524) (domain or fragment) | 0.25 |  | 
1:1 stoichiometric mixture of full-length Importin-α and Importin-β (from UniProt P52292 1-529; Q14974 1-876) (complex) | 2.2 | 50 | 80
